# According to patent US7879563B2, “Method of screening for a carnitine transporter agonist or antagonist and its uses” (Sanofi-Aventis Deutschland GmbH, priority 2004, dated 2011):
# B1: carnitine transporter comprising the amino acid sequence SEQ ID NO: 1 (Homo sapiens) (protein)
# chain: MVRLVLPNPGLDARIPSLAELETIEQEEASSRPKWDNKAQYMLTCLGFCVGLGNVWRFPYLCQSHGGGAFMIPFLILLVLEGIPLLYLEFAIGQRLRRGSLGVWSSIHPALKGLGLASMLTSFMVGLYYNTIISWIMWYLFNSFQEPLPWSDCPLNENQTGYVDECARSSPVDYFWYRETLNISTSISDSGSIQWWMLLCLACAWSVLYMCTIRGIETTGKAVYITSTLPYVVLTIFLIRGLTLKGATNGIVFLFTPNVTELAQPDTWLDAGAQVFFSFSLAFGGLISFSSYNSVHNNCEKDSVIVSIINGFTSVYVAIVVYSVIGFRATQRYDDCFSTNILTLINGFDLPEGNVTQENFVDMQQRCNASDPAAYAQLVFQTCDINAFLSEAVEGTGLAFIVFTEAITKMPLSPLWSVLFFIMLFCLGLSSMFGNMEGVVVPLQDLRVIPPKWPKEVLTGLICLGTFLIGFIFTLNSGQYWLSLLDSYAGSIPLLIIAFCEMFSVVYVYGVDRFNKDIEFMIGHKPNIFWQVTWRVVSPLLMLIIFLFFFVVEVSQELTYSIWDPGYEEFPKSQKISYPNWVYVVVVIVAGVPSLTIPGYAIYKLIRNHCQKPGDHQGLVSTLSTASMNGDLKY
# notes: expressed in transfected cells; host or cells: Xenopus laevis oocytes injected with cRNA
# Substrate: C[N+](C)(C)C[C@H](O)CC(=O)[O-]
# Test: Tracer flux transport measurement in Xenopus laevis oocytes injected with cRNA comprising SEQ ID NO: 4
# Format: cell-based, human
# Conditions: other: concentration dependency of L-carnitine transport, Michaelis-Menten, uptake measured for 1 hour, FIG. 2
# Method: The transport measurements of radioactively labeled compounds were executed using Xenopus laevis oocytes in the so-called “tracer flux method”, wherein the transport rate of substrates across the oocyte membrane into the cytosol is determined.
# A Xenopus laevis oocyte was injected with a cRNA molecule comprising SEQ ID NO: 4.
# Injected oocytes were kept in the culture medium ORi comprising gentamycin (50 mg/L) at 18° C. until the measurement of substrate uptake. Injured, acutely altered or later heavily damaged cells were discarded.
# After 72 hours the oocyte was used for screening for a carnitine transporter agonist or antagonist. […]
# The oocytes were washed four times in 15 ml ice cold ORi. […] The radioactivity of the lysates was determined in a liquid scintillation counter comprising a correction for the luminescence and an external standard. Each vial was counted for 5 minutes. […]
# For the determination of concentration-dependent substrate uptake serial dilutions of the investigated substrate were prepared and the radioactivity was distributed, such that in each reaction mixture between 10000 and 20000 cpm were counted in the supernatant. For the KM determination the substrate uptake was measured for 1 hour. […] The transport rates were calculated and graphically plotted against the substrate concentration and adapted mathematically according to the Michaelis-Menten equation.
protein,measurement,value
B1,Km,15 µM
